Molecular target: T1, human RetL2 (insert of clone DSW240) expressed on 293/EBNA cells (human, UniProt O00451 22-444)
T1 construct: no cleavage sites are stated; also called retL2 expression plasmid
T1 sequence: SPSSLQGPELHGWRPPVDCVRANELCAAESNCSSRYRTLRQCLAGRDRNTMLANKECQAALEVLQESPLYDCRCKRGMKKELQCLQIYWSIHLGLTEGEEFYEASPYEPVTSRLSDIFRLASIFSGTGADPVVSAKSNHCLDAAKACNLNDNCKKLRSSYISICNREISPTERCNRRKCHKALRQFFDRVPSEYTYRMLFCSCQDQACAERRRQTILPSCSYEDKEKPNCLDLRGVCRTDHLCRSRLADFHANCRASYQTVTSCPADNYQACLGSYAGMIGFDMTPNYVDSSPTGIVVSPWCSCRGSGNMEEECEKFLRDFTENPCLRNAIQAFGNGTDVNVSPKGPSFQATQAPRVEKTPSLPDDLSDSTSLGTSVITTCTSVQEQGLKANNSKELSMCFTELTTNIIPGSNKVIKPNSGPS
Test: staining of 293/EBNA cells transfected with the insert of clone DSW240
Method: Plasmid DNAs (the retL2 expression plasmid, a retL1 expression plasmid for a positive control, and an expression plasmid containing an unrelated protein for a negative control) are transfected into 293/EBNA cells (8 ×10^5 on a 60 mm plate) using the lipofection method. After 48 hr, the cells are washed two times with HBHA buffer (0.5 mg/ml BSA, 0.1% NaN_3, 20 mM HEPES (pH 7.0)) and incubated with 20 ug/ml rat Ret/IgG in Tris-buffered saline plus 1 mM MgCl_2 and CaCl_2 for 60–90 min at room temperature. Following this incubation, the cells are washed four times with HBHA buffer and then fixed with 60% acetone/3% formaldehyde/20 mM HEPES (pH 7.0) for 30 sec. […]

B1: rat Ret/IgG fusion protein (Fc fusion)
chain: EAPLGLYFSRDAYWERLYVDQPAGTPLLYVHALRDAPGEVPSFRLGQYLYGVYRTRLHENDWIHIDAGTGLLYLNQSLDHSSWEQLSIRNGGFPLLTVFLQVFLGSTAQREGECHWPGCARVYFSFINDTFPNCSSFKARDLCTPETGVSFRIRENRPPGTFYQFRMLPVQFLCPNISVKYKLLEGDGLPFRCDPDCLEVSTRWALDRELQEKYVLEAECAVAGPGANKEKVAVSFPVTVYDEDDSPPTFSGGVGTASAVVEFKRKEGTVVATLQVFDADVVPASGELVRRYTSTLLSGDSWAQQTFRVEHTPNETLVQSNNNSVRATMHNYKLVLNRSLSISESRVLQLVVLVNDSDFQGPGSGVLFLHFNVSVLPVTLNLPMAYSFPVNRRARRYAQIGKVCVENCQEFSGVSIQYKLQPSSTNCSALGVVTSTEDTSGTLYVNDTEALRRPECTELQYTVVATDRQTRRQTQASLVVTVEGTYIAEEVGCPKSCAVNKRRPECEECGGLGSPTGRCEWRQGDGKGITRNFSTCSPSTRTCPDGHCDALESRDINICPQDCLRGPIVGGHERGERQGIKAGYGICNCFPDEKKCFCEPEDSQGPLCDALCRT
notes: Made in COS or CHO cells and purified on Protein A; also called Ret/Ig fusion protein; soluble Ret/IgG fusion protein; not shown: Fc portion of human IgG1 (part of the Fc domain, 700 bp Sal1 fragment from plasmid 2-4, originally from pSAB144)
B1: binds.

— patent US6861509 (Biogen, dated 2005)
